Assay results as given in publication PMC10318465, “A heme pocket aromatic quadrupole modulates gas binding to cytochrome c′-β: Implications for NO sensors” (The Journal of Biological Chemistry, 2023).
Positions count from the first letter of the chain named. Names may count otherwise.

How the values were obtained:
His123 = His123 (UniProt position 143, GCFGCHAAQKE); test: UV-vis; conditions: 1x MHTCP cocktail buffer (5x stock: 500 mM CAPS, 250 mM Mes, 250 mM Hepes, 250 mM Pipes, 250 mM TAPS), sodium dithionite, excess PROLI NONOate, Ferrous heme-nitrosyl Fe(II)NO complex, 5 uM protein, equilibrium between 5cNO (His 123 dissociated) and 6cNO (His 123 bound)
[1] = set-up: method as in earlier work; conditions: 6cCO, ref AxCP-α [9],[56], L16A [9],[10], Mb pig wt and V68T [57], H64V,V68T [25], sGC [17],[58], Ns H-NOX [16], cited from earlier work; for Kd: read-out: Kd(CO)
[2] = 6cNO; ref AxCP-α [9],[56]; L16A [9],[10]; Mb pig wt and V68T [57]; sGC [17],[58]; Ns H-NOX [16]; cited from earlier work
[3] = Literature kinetic parameters of six-coordinate Fe(II)CO complexes of selected heme proteins; format: binding; conditions: from literature koff(CO) values of Table 4

Cytochrome c'-beta (McCP-beta) (Methylococcus capsulatus (Bath))
pKa (His123): 7.17 ± 0.03

B1: V68T: V68T variant of pig myoglobin (Mb) (protein, UniProt P02189 2-154, looked up, variant V68T)
Myoglobin: GLSDGEWQLVLNVWGKVEADVAGHGQEVLIRLFKGHPETLEKFDKFKHLKSEDEMKASEDLKKHGNTTLTALGGILKKKGHHEAELTPLAQSHATKHKIPVKYLEFISEAIIQVLQSKHPGDFGADAQGAMSKALELFRNDMAAKYKELGFQG
koff(CO) [1]: 0.079 s⁻¹
kon(CO) [1]: 610000 M⁻¹ s⁻¹
Kd [1]: 130 nM
kon(NO) [2]: 4.9e+06 M⁻¹ s⁻¹
increase of koff(CO) relative to wt Mb [3]: ~4 fold

B2: H64V, V68T: H64V/V68T Mb double variant (protein, UniProt P02189 2-154, looked up, variant H64V V68T)
Myoglobin: B1 Myoglobin with H64V
koff(CO) [1]: 0.063 s⁻¹
kon(CO) [1]: 2.7e+07 M⁻¹ s⁻¹
Kd [1]: 2.3 nM
increase of koff(CO) relative to wt Mb [3]: ~3 fold

B3: Mb pig (wt): wild-type pig myoglobin (protein, UniProt P02189 2-154, looked up)
Myoglobin: B1 Myoglobin with T68V
koff(CO) [1]: 0.019 s⁻¹
kon(CO) [1]: 780000 M⁻¹ s⁻¹
Kd [1]: 24 nM
kon(NO) [2]: 1.7e+07 M⁻¹ s⁻¹
